Assay results: US20090068637A1

Legend:
Test in all cases: cell-based or functional assay
[1] = target: HA of H5N1 virus strain VTM4 (avian influenza virus H5N1)
[2] = target: HA of H5N1 virus strain MB2 (avian influenza virus H5N1)
[3] = target: non-H5 viruses (14 strains; H1~H13, Chicken NDV)
[4] = target: HA of H5N1 virus strain IDN3 (avian influenza virus H5N1)
[5] = target: HA of H5N1 virus strain VNM2.1 (avian influenza virus H5N1)
[6] = target: HA of H5N1 virus strain IDN5 (avian influenza virus H5N1)
[7] = target: HA of H5N1 virus strain GD1 (avian influenza virus H5N1)
[8] = target: HA of H5N1 virus strain IDN2 (avian influenza virus H5N1)
[9] = target: HA of H5N1 virus strain MIX1 (avian influenza virus H5N1)
[10] = target: HA of H5N1 virus strain HN1 (avian influenza virus H5N1)
[11] = target: HA of H5N1 virus strain VTM3 (avian influenza virus H5N1)
[12] = target: HA of H5N1 virus strain IDN4 (avian influenza virus H5N1)
[13] = target: HA of H5N1 virus strain VTM1.1 (avian influenza virus H5N1)
[14] = target: HA of H5N1 virus strain IDN1.1 (avian influenza virus H5N1)
[15] = target: HA of H5N1 virus strain MB1 (avian influenza virus H5N1)
[16] = target: H5 virus strains (thirty-four strains of H5N1 viruses)
[17] = target: HA of H5N1 virus strain GD3 (avian influenza virus H5N1)
[18] = target: HA of H5N1 virus strain YN1 (avian influenza virus H5N1)
[19] = target: HA of H5N1 virus strain MIX3 (avian influenza virus H5N1)
[20] = target: HA of H5N1 virus strain GD2 (avian influenza virus H5N1)
[21] = target: HA of H5N1 virus strain HN2 (avian influenza virus H5N1)
[22] = target: HA of H5N1 virus strain MIX2 (avian influenza virus H5N1)
[23] = target: HA of H5N1 virus strain VTM2 (avian influenza virus H5N1)

B1: monoclonal antibody 4D1 (antibody, V domains shown)
VH: QVQLQQPGAELVKPGASVNLSCKASGYTFTSYWMHWVKQRPGQGLEWIGEIDPSDSFTTYNQNFKDRATLTVDKSSSTAYMQLRSLTSEDSAVYYCARGGPGDFRYAMDYWGQGTSVTVSS
VL: DILMTQSPSSMSVSLGDTVSITCHASQGISSNIGWLQQKPGKSFKGLIYHGTNLEDGVPSRFSGSGSGADYSLTISSLESEDFADYYCVQYVQFPYTFGGGTKLEIKR
- HI titer [1]: 400 titer
- Neutralization titer [1]: 1600 titer
- HI titer [2]: 6400 titer
- Neutralization titer [2]: 12800 titer
- HI assay: positive number/total virus number (of 14 strains) [3]: 0
- HI titer [4]: 6400 titer
- Neutralization titer [4]: 12800 titer
- HI titer [5]: 400 titer
- Neutralization titer [5]: 1600 titer
- HI titer [6]: 12800 titer
- Neutralization titer [6]: 12800 titer
- HI titer [7]: 12800 titer
- Neutralization titer [7]: 12800 titer
- HI titer [8]: 800 titer
- Neutralization titer [8]: 12800 titer
- HI titer [9]: 12800 titer
- Neutralization titer [9]: 12800 titer
- HI titer [10]: 12800 titer
- Neutralization titer [10]: 12800 titer
- HI titer [11]: 12800 titer
- Neutralization titer [11]: 12800 titer
- HI titer [12]: 12800 titer
- Neutralization titer [12]: 12800 titer
- HI titer [13]: 3200 titer
- Neutralization titer [13]: 1600 titer
- HI titer [14]: 12800 titer
- Neutralization titer [14]: 12800 titer
- HI titer [15]: 3200 titer
- Neutralization titer [15]: 6400 titer
- HI assay: positive number/total virus number (of 34 strains) [16]: 34
- HI titer [17]: 12800 titer
- Neutralization titer [17]: 12800 titer
- HI titer [18]: 6400 titer
- Neutralization titer [18]: 12800 titer
- HI titer [19]: 12800 titer
- Neutralization titer [19]: 12800 titer
- HI titer [20]: 800 titer
- Neutralization titer [20]: 12800 titer
- HI titer [21]: 3200 titer
- Neutralization titer [21]: 12800 titer
- HI titer [22]: 12800 titer
- Neutralization titer [22]: 12800 titer
- HI titer [23]: 3200 titer
- Neutralization titer [23]: 3200 titer

B2: monoclonal antibody 10F7 (antibody, V domains shown)
VH: QVQLQQPGAELVKPGASVKLSCKASGYTFTSYWMHWVKQRPGQGLEWIGEIDPSDSYTNYNQKFKGKATLTVDKSSSTAYMQLSSLTSEDSAVYYCARGGTGDFHYAMDYWGQGTSVTVSS
VL: DILMTQSPSSMSVSLGDTVSITCHASQGISSNIGWLQQKPGKSFKGLIYHGTNLEDGVPSRFSGSGSGADYSLTISSLESEDFADYYCVQYVQFPYTFGGGTKLEIKR
- HI titer [1]: 400 titer
- Neutralization titer [1]: 200 titer
- HI titer [2]: 12800 titer
- Neutralization titer [2]: 12800 titer
- HI assay: positive number/total virus number (of 14 strains) [3]: 0
- HI titer [4]: 1600 titer
- Neutralization titer [4]: 12800 titer
- HI titer [5]: 3200 titer
- Neutralization titer [5]: 200 titer
- HI titer [6]: 6400 titer
- Neutralization titer [6]: 12800 titer
- HI titer [7]: 6400 titer
- Neutralization titer [7]: 12800 titer
- HI titer [8]: 1600 titer
- Neutralization titer [8]: 12800 titer
- HI titer [9]: 12800 titer
- Neutralization titer [9]: 12800 titer
- HI titer [10]: 12800 titer
- Neutralization titer [10]: 12800 titer
- HI titer [11]: 12800 titer
- Neutralization titer [11]: 12800 titer
- HI titer [12]: 12800 titer
- Neutralization titer [12]: 12800 titer
- HI titer [13]: 3200 titer
- Neutralization titer [13]: 3200 titer
- HI titer [14]: 12800 titer
- Neutralization titer [14]: 12800 titer
- HI titer [15]: 6400 titer
- Neutralization titer [15]: 12800 titer
- HI assay: positive number/total virus number (of 34 strains) [16]: 34
- HI titer [17]: 12800 titer
- Neutralization titer [17]: 12800 titer
- HI titer [18]: 3200 titer
- Neutralization titer [18]: 12800 titer
- HI titer [19]: 12800 titer
- Neutralization titer [19]: 12800 titer
- HI titer [20]: 12800 titer
- Neutralization titer [20]: 12800 titer
- HI titer [21]: 1600 titer
- Neutralization titer [21]: 12800 titer
- HI titer [22]: 12800 titer
- Neutralization titer [22]: 12800 titer
- HI titer [23]: 1600 titer
- Neutralization titer [23]: 3200 titer

B3: monoclonal antibody 8H5 (antibody, V domains shown)
VH: QVQLQQSGAELMKPGASVKISCKATGYTFSNYWIEWIKQRPGHGLEWIGEILPGSDRTNYNGKFKGKATFTADTSSNTAHMQLSSLTSEDSAVYYCANRYDGYYFGLDYWGQGTSVAVSS
VL: EIVLTQSPAIMSASLGEKVTMSCRASSSVNFVYWYQQRSDASPKLLIYYSSNLAPGVPPRFSGSGSGNSYSLTISGLEGEDAATYYCQHFTSSPYTFGGGTNLEIKR
- HI assay: positive number/total virus number (of 14 strains) [3]: 0
